Results: PMC10721106, “Structure of the siphophage neck–Tail complex suggests that conserved tail tip proteins facilitate receptor binding and tail assembly” (PLOS Biology, 2023)

B2: coat protein gpE (natural protein, bacteriophage lambda, UniProt P03713 1-341, looked up)
chain: MSMYTTAQLLAANEQKFKFDPLFLRLFFRESYPFTTEKVYLSQIPGLVNMALYVSPIVSGEVIRSRGGSTSEFTPGYVKPKHEVNPQMTLRRLPDEDPQNLADPAYRRRRIIMQNMRDEELAIAQVEEMQAVSAVLKGKYTMTGEAFDPVEVDMGRSEENNITQSGGTEWSKRDKSTYDPTDDIEAYALNASGVVNIIVFDPKGWALFRSFKAVKEKLDTRRGSNSELETAVKDLGKAVSYKGMYGDVAIVVYSGQYVENGVKKNFLPDNTMVLGNTQARGLRTYGCIQDADAQREGINASARYPKNWVTTGDPAREFTMIQSAPLMLLADPDEFVSVQLA
notes: major capsid (coat) protein gpE of bacteriophage lambda, as it stands in the mature virion; The introduction gives 415 copies in the head (cited); also called major capsid protein gpE; head protein gpE; source: lambda W60 phage grown on E. coli MG1655; virions purified (PEG 8000 precipitation, CsCl gradient)
B4: tail terminal protein gpU (natural protein, bacteriophage lambda, UniProt P03732 1-131, looked up)
chain: MKHTELRAAVLDALEKHDTGATFFDGRPAVFDEADFPAVAVYLTGAEYTGEELDSDTWQAELHIEVFLPAQVPDSELDAWMESRIYPVMSDIPALSDLITSMVASGYDYRRDDDAGLWSSADLTYVITYEM
notes: tail terminal protein gpU of bacteriophage lambda; all 131 residues modelled; O-loop 25-37, E-loop 45-58; also called tail terminator; source: lambda W60 phage grown on E. coli MG1655; virions purified (PEG 8000 precipitation, CsCl gradient)

How the values were obtained:
coat protein gpE = target: B2; assay: cryo-EM structure; purified lambda virions; icosahedral reconstruction of the head, 3.5 Å; settings: both partners purified
[1] = target: T1, cementing protein gpD (bacteriophage lambda), P03712; assay: as above; settings: remark: other sources report otherwise
T1 chain: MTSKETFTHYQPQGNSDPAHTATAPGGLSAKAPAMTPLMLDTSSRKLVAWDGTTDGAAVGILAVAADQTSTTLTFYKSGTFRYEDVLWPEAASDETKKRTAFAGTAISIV

[2] = target: the molecule itself; assay: as above
[3] = target: B4; assay: cryo-EM structure; purified lambda virions; local reconstruction of the neck: gpFII, gpU and 2 proximal gpV rings, 3.5 Å; settings: both partners purified
[4] = target: the molecule itself; assay: as above
[5] = target: the molecule itself; assay: cryo-EM structure; purified lambda virions; local reconstruction of the gpB (portal) and gpW (adaptor) rings with 12-fold symmetry, 3.2 Å
[6] = target: T2, tail tube protein gpV (bacteriophage lambda), P03733; assay: cryo-EM structure; purified lambda virions; local reconstruction of the tail tube (RELION), 3.48 Å; settings: remark: other sources report otherwise
T2 chain: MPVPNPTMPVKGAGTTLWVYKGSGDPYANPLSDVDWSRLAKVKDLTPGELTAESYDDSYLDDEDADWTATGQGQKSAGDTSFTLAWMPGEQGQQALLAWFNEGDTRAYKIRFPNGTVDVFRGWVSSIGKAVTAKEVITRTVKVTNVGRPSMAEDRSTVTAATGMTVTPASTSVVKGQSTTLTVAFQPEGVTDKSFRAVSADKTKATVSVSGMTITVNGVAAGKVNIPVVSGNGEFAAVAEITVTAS

[7] = target: the molecule itself; assay: cryo-EM structure; purified lambda virions; local reconstruction of the tail tip complex with C3 symmetry (RELION), 3.44 Å

B1: cementing protein gpD (natural protein)
chain: MTSKETFTHYQPQGNSDPAHTATAPGGLSAKAPAMTPLMLDTSSRKLVAWDGTTDGAAVGILAVAADQTSTTLTFYKSGTFRYEDVLWPEAASDETKKRTAFAGTAISIV
notes: cementing (decoration) protein gpD of bacteriophage lambda, trimers on the capsid shell of the mature virion; also called head protein gpD; source: lambda W60 phage grown on E. coli MG1655; virions purified (PEG 8000 precipitation, CsCl gradient)
binding result (coat protein gpE): binds | stoichiometry N [1]: 3

B2
binding result [2]: binds

B3: stopper protein gpFII (natural protein, bacteriophage lambda)
chain: MADFDNLFDAAIARADETIRGYMGTSATITSGEQSGAVIRGVFDDPENISYAGQGVRVEGSSPSLFVRTDEVRQLRRGDTLTIGEENFWVDRVSPDDGGSCHLWLGRGVPPAVNRRR
notes: stopper protein gpFII of bacteriophage lambda, 117-residue protein, residues 4-117 resolved; domains: N-terminal α-helix 4-24, β-sandwich 25-41 and 63-107, β-hairpin 46-62, C-terminal loop 108-117; also called neck protein gpFII; source: lambda W60 phage grown on E. coli MG1655; virions purified (PEG 8000 precipitation, CsCl gradient)
binding result [3]: binds | stoichiometry N [4]: 6

B4
stoichiometry N [4]: 6

B5: adaptor protein gpW (natural protein, bacteriophage lambda)
chain: MTRQEELAAARAALHDLMTGKRVATVQKDGRRVEFTATSVSDLKKYIAELEVQTGMTQRRRGPAGFYV
notes: adaptor protein gpW of bacteriophage lambda, 68-residue protein, residues 4-68 resolved; domains: β-hairpin 23-36, two-α-helix bundle 4-22 and 37-54, C-arm 55-68; also called neck protein gpW; source: lambda W60 phage grown on E. coli MG1655; virions purified (PEG 8000 precipitation, CsCl gradient); copies: 12
stoichiometry N [5]: 12

B6: tail tube protein gpV, P03733 1-246 (natural protein)
chain: MPVPNPTMPVKGAGTTLWVYKGSGDPYANPLSDVDWSRLAKVKDLTPGELTAESYDDSYLDDEDADWTATGQGQKSAGDTSFTLAWMPGEQGQQALLAWFNEGDTRAYKIRFPNGTVDVFRGWVSSIGKAVTAKEVITRTVKVTNVGRPSMAEDRSTVTAATGMTVTPASTSVVKGQSTTLTVAFQPEGVTDKSFRAVSADKTKATVSVSGMTITVNGVAAGKVNIPVVSGNGEFAAVAEITVTAS
stoichiometry N [6]: 6

B7: portal protein gpB (natural protein, bacteriophage lambda, UniProt P03710 23-533, looked up)
chain: GYHGGGSGFGGQLRSWNPPSESVDAALLPNFTRGNARADDLVRNNGYAANAIQLHQDHIVGSFFRLSHRPSWRYLGIGEEEARAFSREVEAAWKEFAEDDCCCIDVERKRTFTMMIREGVAMHAFNGELFVQATWDTSSSRLFRTQFRMVSPKRISNPNNTGDSRNCRAGVQINDSGAALGYYVSEDGYPGWMPQKWTWIPRELPGGRASFIHVFEPVEDGQTRGANVFYSVMEQMKMLDTLQNTQLQSAIVKAMYAATIESELDTQSAMDFILGANSQEQRERLTGWIGEIAAYYAAAPVRLGGAKVPHLMPGDSLNLQTAQDTDNGYSVFEQSLLRYIAAGLGVSYEQLSRNYAQMSYSTARASANESWAYFMGRRKFVASRQASQMFLCWLEEAIVRRVVTLPSKARFSFQEARSAWGNCDWIGSGRMAIDGLKEVQEAVMLIEAGLSTYEKECAKRGDDYQEIFAQQVRETMERRAAGLKPPAWAAAAFESGLRQSTEEEKSDSRAA
notes: portal protein gpB of bacteriophage lambda in the mature virion; modelled without 23 N-terminal residues, 20 C-terminal residues and the loop 303-319; domains: wing 24-249 and 368-452, stem 250-279 and 343-367, clip 280-342, crown 453-511; source: lambda W60 phage grown on E. coli MG1655; virions purified (PEG 8000 precipitation, CsCl gradient); copies: 12
stoichiometry N [5]: 12

B8: insertion protein gpI (natural protein, bacteriophage lambda, UniProt P03730 1-223, looked up)
chain: MAATHTLPLASPGMARICLYGDLQRFGRRIDLRVKTGAEAIRALATQLPAFRQKLSDGWYQVRIAGRDVSTSGLTAQLHETLPDGAVIHIVPRVAGAKSGGVFQIVLGAAAIAGSFFTAGATLAAWGAAIGAGGMTGILFSLGASMVLGGVAQMLAPKARTPRIQTTDNGKQNTYFSSLDNMVAQGNVLPVLYGEMRVGSRVVSQEISTADEGDGGQVVVIGR
notes: insertion protein gpI of bacteriophage lambda in the virion; source: lambda W60 phage grown on E. coli MG1655; virions purified (PEG 8000 precipitation, CsCl gradient)
stoichiometry N [7]: 3

B9: distal tail protein gpM (natural protein, bacteriophage lambda, UniProt P03737 1-109, looked up)
chain: MKTFRWKVKPGMDVASVPSVRKVRFGDGYSQRAPAGLNANLKTYSVTLSVPREEATVLESFLEEHGGWKSFLWTPPYEWRQIKVTCAKWSSRVSMLRVEFSAEFEQVVN
notes: distal tail protein gpM of bacteriophage lambda; all 109 residues resolved; two conformers that differ in the E-loop; source: lambda W60 phage grown on E. coli MG1655; virions purified (PEG 8000 precipitation, CsCl gradient)
stoichiometry N [7]: 6

B10: tape measure protein gpH (natural protein, bacteriophage lambda, UniProt P03736 1-853, looked up)
chain: MAEPVGDLVVDLSLDAARFDEQMARVRRHFSGTESDAKKTAAVVEQSLSRQALAAQKAGISVGQYKAAMRMLPAQFTDVATQLAGGQSPWLILLQQGGQVKDSFGGMIPMFRGLAGAITLPMVGATSLAVATGALAYAWYQGNSTLSDFNKTLVLSGNQAGLTADRMLVLSRAGQAAGLTFNQTSESLSALVKAGVSGEAQIASISQSVARFSSASGVEVDKVAEAFGKLTTDPTSGLTAMARQFHNVSAEQIAYVAQLQRSGDEAGALQAANEAATKGFDDQTRRLKENMGTLETWADRTARAFKSMWDAVLDIGRPDTAQEMLIKAEAAYKKADDIWNLRKDDYFVNDEARARYWDDREKARLALEAARKKAEQQTQQDKNAQQQSDTEASRLKYTEEAQKAYERLQTPLEKYTARQEELNKALKDGKILQADYNTLMAAAKKDYEATLKKPKQSSVKVSAGDRQEDSAHAALLTLQAELRTLEKHAGANEKISQQRRDLWKAESQFAVLEEAAQRRQLSAQEKSLLAHKDETLEYKRQLAALGDKVTYQERLNALAQQADKFAQQQRAKRAAIDAKSRGLTDRQAEREATEQRLKEQYGDNPLALNNVMSEQKKTWAAEDQLRGNWMAGLKSGWSEWEESATDSMSQVKSAATQTFDGIAQNMAAMLTGSEQNWRSFTRSVLSMMTEILLKQAMVGIVGSIGSAIGGAVGGGASASGGTAIQAAAAKFHFATGGFTGTGGKYEPAGIVHRGEFVFTKEATSRIGVGNLYRLMRGYATGGYVGTPGSMADSRSQASGTFEQNNHVVINNDGTNGQIGPAALKAVYDMARKGARDEIQTQMRDGGLFSGGGR
notes: tape measure protein gpH of bacteriophage lambda in the virion; only a C-terminal α-helix modelled (residues 818-842 in the results, 818-849 in the methods); source: lambda W60 phage grown on E. coli MG1655; virions purified (PEG 8000 precipitation, CsCl gradient)
stoichiometry N [7]: 3

B11: central fiber protein gpJ (natural protein, bacteriophage lambda, UniProt P03749 1-1132, looked up)
chain: MGKGSSKGHTPREAKDNLKSTQLLSVIDAISEGPIEGPVDGLKSVLLNSTPVLDTEGNTNISGVTVVFRAGEQEQTPPEGFESSGSETVLGTEVKYDTPITRTITSANIDRLRFTFGVQALVETTSKGDRNPSEVRLLVQIQRNGGWVTEKDITIKGKTTSQYLASVVMGNLPPRPFNIRMRRMTPDSTTDQLQNKTLWSSYTEIIDVKQCYPNTALVGVQVDSEQFGSQQVSRNYHLRGRILQVPSNYNPQTRQYSGIWDGTFKPAYSNNMAWCLWDMLTHPRYGMGKRLGAADVDKWALYVIGQYCDQSVPDGFGGTEPRITCNAYLTTQRKAWDVLSDFCSAMRCMPVWNGQTLTFVQDRPSDKTWTYNRSNVVMPDDGAPFRYSFSALKDRHNAVEVNWIDPNNGWETATELVEDTQAIARYGRNVTKMDAFGCTSRGQAHRAGLWLIKTELLETQTVDFSVGAEGLRHVPGDVIEICDDDYAGISTGGRVLAVNSQTRTLTLDREITLPSSGTALISLVDGSGNPVSVEVQSVTDGVKVKVSRVPDGVAEYSVWELKLPTLRQRLFRCVSIRENDDGTYAITAVQHVPEKEAIVDNGAHFDGEQSGTVNGVTPPAVQHLTAEVTADSGEYQVLARWDTPKVVKGVSFLLRLTVTADDGSERLVSTARTTETTYRFTQLALGNYRLTVRAVNAWGQQGDPASVSFRIAAPAAPSRIELTPGYFQITATPHLAVYDPTVQFEFWFSEKQIADIRQVETSTRYLGTALYWIAASINIKPGHDYYFYIRSVNTVGKSAFVEAVGRASDDAEGYLDFFKGKITESHLGKELLEKVELTEDNASRLEEFSKEWKDASDKWNAMWAVKIEQTKDGKHYVAGIGLSMEDTEEGKLSQFLVAANRIAFIDPANGNETPMFVAQGNQIFMNDVFLKRLTAPTITSGGNPPAFSLTPDGKLTAKNADISGSVNANSGTLSNVTIAENCTINGTLRAEKIVGDIVKAASAAFPRQRESSVDWPSGTRTVTVTDDHPFDRQIVVLPLTFRGSKRTVSGRTTYSMCYLKVLMNGAVIYDGAANEAVQVFSRIVDMPAGRGNVILTFTLTSTRHSADIPPYTFASDVQVMVIKKQALGISVV
notes: central fiber protein gpJ of bacteriophage lambda in the virion; domains HDII, HDII-insertion (with FNIII-A, residues 72-215), HDIII, HDIV (with a β-sandwich, residues 483-569), linker, FNIII-1, FNIII-2, three-helix bundle; source: lambda W60 phage grown on E. coli MG1655; virions purified (PEG 8000 precipitation, CsCl gradient)
stoichiometry N [7]: 3
